Sequences and labels used below:
B1: ZNF511 (parent)
chain: HLYPADFRFDKPKKSRSPASAEAP
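Note: lentivirally expressed fusions sorted by FACS into six bins by GFP to DsRed ratio, PSI derived from sequencing read proportions per bin multiplied by bin number.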

Variants of B1 are the subject of this data set. Description: protein stability index of a GFP-peptide fusion (GPS, HEK-293T) (PSI 1-6); higher = more stable. To be noted: c terminus: a fixed tail appended.
As for HLYPQDFRFDKPKKSRSPASAEAP [A5Q], the protein stability index was 2.16.

Take HLYPPDFRFDKPKKSRSPASAEAP [A5P]: the protein stability index is 4.01.

Consider HLYPHDFRFDKPKKSRSPASAEAP [A5H], for which the protein stability index amounted to 3.06.

Regarding HLYPGDFRFDKPKKSRSPASAEAP [A5G], the protein stability index came to 2.62.

As for HLYPRDFRFDKPKKSRSPASAEAP [A5R], the protein stability index came to 3.21.

Turning to HLYPEDFRFDKPKKSRSPASAEAP [A5E], the protein stability index amounted to 2.3.

HLYPNDFRFDKPKKSRSPASAEAP [A5N]: the protein stability index came to 2.29.

Turning to HLYPSDFRFDKPKKSRSPASAEAP [A5S], the protein stability index turned out to be 2.69.

In the case of HLYPDDFRFDKPKKSRSPASAEAP [A5D], the protein stability index stood at 2.32.

Take HLYPYDFRFDKPKKSRSPASAEAP [A5Y]: the protein stability index was 2.79.

Regarding HLYPKDFRFDKPKKSRSPASAEAP [A5K], the protein stability index was 2.97.

On to HLYPLDFRFDKPKKSRSPASAEAP [A5L], for which the protein stability index was 3.02.

Consider HLYPMDFRFDKPKKSRSPASAEAP [A5M], for which the protein stability index was 2.48.

For HLYPTDFRFDKPKKSRSPASAEAP [A5T], the protein stability index came to 3.11.

For the variant HLYPIDFRFDKPKKSRSPASAEAP [A5I], the protein stability index was 3.5.

Regarding HLYPVDFRFDKPKKSRSPASAEAP [A5V], the protein stability index turned out to be 3.6.

As for HLYPFDFRFDKPKKSRSPASAEAP [A5F], the protein stability index worked out at 2.63.

For the variant HLYPWDFRFDKPKKSRSPASAEAP [A5W], the protein stability index worked out at 1.63.

Take HLYPCDFRFDKPKKSRSPASAEAP [A5C]: the protein stability index came to 3.06.

HLYWADFRFDKPKKSRSPASAEAP [P4W]: the protein stability index was determined as 2.33.

For the variant HLYHADFRFDKPKKSRSPASAEAP [P4H], the protein stability index turned out to be 3.95.

Regarding HLYDADFRFDKPKKSRSPASAEAP [P4D], the protein stability index came out at 4.22.

As to HLYLADFRFDKPKKSRSPASAEAP [P4L], the protein stability index came out at 3.56.

For HLYKADFRFDKPKKSRSPASAEAP [P4K], the protein stability index amounted to 4.5.

Regarding HLYEADFRFDKPKKSRSPASAEAP [P4E], the protein stability index came to 4.33.

Regarding HLYAADFRFDKPKKSRSPASAEAP [P4A], the protein stability index worked out at 3.96.

For the variant HLYIADFRFDKPKKSRSPASAEAP [P4I], the protein stability index stood at 3.56.

On to HLYMADFRFDKPKKSRSPASAEAP [P4M], for which the protein stability index came to 3.43.

Turning to HLYYADFRFDKPKKSRSPASAEAP [P4Y], the protein stability index was found to be 2.73.

As to HLYFADFRFDKPKKSRSPASAEAP [P4F], the protein stability index is 2.85.

As to HLYCADFRFDKPKKSRSPASAEAP [P4C], the protein stability index turned out to be 3.54.

With HLYTADFRFDKPKKSRSPASAEAP [P4T], the protein stability index was 3.77.

HLYVADFRFDKPKKSRSPASAEAP [P4V]: the protein stability index stood at 3.24.

In the case of HLYGADFRFDKPKKSRSPASAEAP [P4G], the protein stability index came to 3.21.

Regarding HLYRADFRFDKPKKSRSPASAEAP [P4R], the protein stability index amounted to 3.73.

In the case of HLYNADFRFDKPKKSRSPASAEAP [P4N], the protein stability index was found to be 3.78.

Turning to HLYSADFRFDKPKKSRSPASAEAP [P4S], the protein stability index was 3.9.

Regarding HLYQADFRFDKPKKSRSPASAEAP [P4Q], the protein stability index was found to be 3.94.

In the case of HLYPADFREDKPKKSRSPASAEAP [F9E], the protein stability index worked out at 1.88.

On to HLYPADFRDDKPKKSRSPASAEAP [F9D], for which the protein stability index was 2.1.

As to HLYPADFRQDKPKKSRSPASAEAP [F9Q], the protein stability index turned out to be 2.

As to HLYPADFRTDKPKKSRSPASAEAP [F9T], the protein stability index came out at 2.85.

Take HLYPADFRSDKPKKSRSPASAEAP [F9S]: the protein stability index was 2.05.

Consider HLYPADFRGDKPKKSRSPASAEAP [F9G], for which the protein stability index was 2.63.

As for HLYPADFRYDKPKKSRSPASAEAP [F9Y], the protein stability index amounted to 3.29.

As for HLYPADFRMDKPKKSRSPASAEAP [F9M], the protein stability index came to 2.01.

HLYPADFRKDKPKKSRSPASAEAP [F9K]: the protein stability index stood at 4.12.

For HLYPADFRPDKPKKSRSPASAEAP [F9P], the protein stability index was found to be 2.35.

In the case of HLYPADFRRDKPKKSRSPASAEAP [F9R], the protein stability index worked out at 3.71.

For HLYPADFRCDKPKKSRSPASAEAP [F9C], the protein stability index amounted to 2.61.

Consider HLYPADFRLDKPKKSRSPASAEAP [F9L], for which the protein stability index was 3.18.

Turning to HLYPADFRADKPKKSRSPASAEAP [F9A], the protein stability index was 1.29.

Turning to HLYPADFRWDKPKKSRSPASAEAP [F9W], the protein stability index was 2.82.

Turning to HLYPADFRNDKPKKSRSPASAEAP [F9N], the protein stability index came to 2.63.

HLYPADFRHDKPKKSRSPASAEAP [F9H]: the protein stability index came out at 2.91.

In the case of HLYPADFRIDKPKKSRSPASAEAP [F9I], the protein stability index came to 2.49.

As for HLYPADFKFDKPKKSRSPASAEAP [R8K], the protein stability index stood at 3.3.

As to HLYPADFTFDKPKKSRSPASAEAP [R8T], the protein stability index is 2.44.

On to HLYPADFDFDKPKKSRSPASAEAP [R8D], for which the protein stability index amounted to 4.13.

Take HLYPADFAFDKPKKSRSPASAEAP [R8A]: the protein stability index worked out at 2.61.

Regarding HLYPADFMFDKPKKSRSPASAEAP [R8M], the protein stability index came out at 2.64.

Turning to HLYPADFVFDKPKKSRSPASAEAP [R8V], the protein stability index worked out at 1.6.

As for HLYPADFGFDKPKKSRSPASAEAP [R8G], the protein stability index worked out at 2.53.

With HLYPADFYFDKPKKSRSPASAEAP [R8Y], the protein stability index was found to be 2.37.

Regarding HLYPADFSFDKPKKSRSPASAEAP [R8S], the protein stability index amounted to 2.05.

With HLYPADFQFDKPKKSRSPASAEAP [R8Q], the protein stability index was 3.11.

Turning to HLYPADFIFDKPKKSRSPASAEAP [R8I], the protein stability index was 2.03.

Take HLYPADFPFDKPKKSRSPASAEAP [R8P]: the protein stability index was found to be 4.07.

HLYPADFHFDKPKKSRSPASAEAP [R8H]: the protein stability index stood at 2.82.

Regarding HLYPADFFFDKPKKSRSPASAEAP [R8F], the protein stability index is 2.37.

Turning to HLYPADFLFDKPKKSRSPASAEAP [R8L], the protein stability index worked out at 1.77.

As for HLYPADFNFDKPKKSRSPASAEAP [R8N], the protein stability index amounted to 3.1.

HLYPADFEFDKPKKSRSPASAEAP [R8E]: the protein stability index was found to be 3.93.

On to HLYPADFWFDKPKKSRSPASAEAP [R8W], for which the protein stability index stood at 1.8.

As for HLYPADFCFDKPKKSRSPASAEAP [R8C], the protein stability index is 2.8.

HLDPADFRFDKPKKSRSPASAEAP [Y3D]: the protein stability index turned out to be 4.58.

For the variant HLKPADFRFDKPKKSRSPASAEAP [Y3K], the protein stability index came out at 3.84.

Regarding HLMPADFRFDKPKKSRSPASAEAP [Y3M], the protein stability index stood at 4.4.

As for HLFPADFRFDKPKKSRSPASAEAP [Y3F], the protein stability index was found to be 3.13.

For HLIPADFRFDKPKKSRSPASAEAP [Y3I], the protein stability index came out at 3.73.

As to HLTPADFRFDKPKKSRSPASAEAP [Y3T], the protein stability index was 4.65.

Consider HLAPADFRFDKPKKSRSPASAEAP [Y3A], for which the protein stability index came out at 4.14.

On to HLEPADFRFDKPKKSRSPASAEAP [Y3E], for which the protein stability index amounted to 3.71.

In the case of HLVPADFRFDKPKKSRSPASAEAP [Y3V], the protein stability index came out at 3.81.

Regarding HLSPADFRFDKPKKSRSPASAEAP [Y3S], the protein stability index worked out at 3.64.

For the variant HLCPADFRFDKPKKSRSPASAEAP [Y3C], the protein stability index amounted to 3.55.

Consider HLWPADFRFDKPKKSRSPASAEAP [Y3W], for which the protein stability index was determined as 3.71.

Take HLHPADFRFDKPKKSRSPASAEAP [Y3H]: the protein stability index was determined as 2.69.

HLRPADFRFDKPKKSRSPASAEAP [Y3R]: the protein stability index came out at 4.26.

For the variant HLQPADFRFDKPKKSRSPASAEAP [Y3Q], the protein stability index was determined as 3.85.

HLPPADFRFDKPKKSRSPASAEAP [Y3P]: the protein stability index was found to be 4.73.

In the case of HLGPADFRFDKPKKSRSPASAEAP [Y3G], the protein stability index came to 4.38.

HLNPADFRFDKPKKSRSPASAEAP [Y3N]: the protein stability index turned out to be 2.43.

Turning to HLLPADFRFDKPKKSRSPASAEAP [Y3L], the protein stability index was determined as 4.36.

Source of the values: the supplement of paper PMC10567573.
